In US9266930 one finds binding affinity ratio (IC50 of standard peptide / IC50 of test peptide) and binding affinity ratio (relative to standard peptide) data, which are given here for 43 substances.

Where two headings read alike, the source gives them in different places.

The target in assay [1] is HLA-A*1101 (Human).
Assay [2] deals with HLA-A*0301 (human). Kind of assay: competition with 125I-labeled probe peptide for purified HLA, gel filtration. In general terms: Size exclusion chromatography separates by hydrodynamic size, large species first.
For assay [3], the target named is HLA-A*1101 (human). Described as above.
The target of assay [4] is HLA-A*1101 (human).
The target of assay [5] is HLA-A*0301 (human).
Assay [6] addresses HLA-A*1101 (human). The source holds these as a separate data set.
For assay [7], the target named is HLA-A*3101 (human).
Assay [8] concerns the target HLA-A*3301 (human).
In a further assay the target is HLA-A*6801 (human). The assay can be described thus: competition with 125I-labeled probe peptide for purified HLA, gel filtration.
Assay [9] deals with HLA-A*3101 (human). The description is as above.
Assay [10] concerns the target HLA-A*3301 (human). The description is as above.

With “[…] (LSA, position 68, 9 amino acids) (peptide; other documents disagree on this pair)”, the binding affinity ratio (IC50 of standard peptide / IC50 of test peptide) with HLA-A*1101 (Human) [1] came out at 0.0038.

On to “[…] (LSA, position 1704, 9 amino acids) (peptide; other documents disagree on this pair)”, for which, in the assay with HLA-A*1101 (Human) [1], the binding affinity ratio (IC50 of standard peptide / IC50 of test peptide) was determined as 0.0007.

Regarding “[…] (P. falciparum LSA, position 1388, 9 amino acids) (peptide; other documents disagree on this pair)”, the binding affinity ratio (relative to standard peptide) with HLA-A*0301 (human) [2] came out at 0.0001; in the assay with HLA-A*1101 (human) [3], 0.0002.

For “[…] (P. falciparum LSA, position 1575, 9 amino acids) (peptide; other documents disagree on this pair)”, the binding affinity ratio (relative to standard peptide) with HLA-A*0301 (human) [2] is 0.0001; with HLA-A*1101 (human) [3] it was 0.0002.

For “[…] (LSA position 1387, 10-mer) (peptide; other documents disagree on this pair)”, the binding affinity ratio (IC50 of standard peptide / IC50 of test peptide) with HLA-A*1101 (human) [4] is 0.0002.

Take “[…] (Pf LSA 1830, 10-mer A03 supermotif peptide) (peptide; other documents disagree on this pair)”: the binding affinity ratio (IC50 of standard peptide / IC50 of test peptide) with HLA-A*0301 (human) [5] is 0.0004.

In the case of “[…] (Pf LSA 1854, 10-mer A03 supermotif peptide) (peptide; other documents disagree on this pair)”, the binding affinity ratio (IC50 of standard peptide / IC50 of test peptide) with HLA-A*1101 (human) [6] turned out to be 0.049.

For the substance “[…] (LSA, position 1854, 10 amino acids) (peptide; other documents disagree on this pair)”, the binding affinity ratio (IC50 of standard peptide / IC50 of test peptide) with HLA-A*1101 (Human) [1] came out at 0.049.

Consider “[…] (Pf LSA 68, 9-mer A03 supermotif peptide) (peptide; other documents disagree on this pair)”, for which the values for the binding affinity ratio (IC50 of standard peptide / IC50 of test peptide) with HLA-A*0301 (human) [5] and in the assay with HLA-A*1101 (human) [6] were 0.0028 and 0.0038, respectively.

For “[…] (P. falciparum SSP2, position 31, 9 amino acids) (peptide; other documents disagree on this pair)”, the binding affinity ratio (relative to standard peptide) with HLA-A*0301 (human) [5] was found to be 0.0005; in the assay with HLA-A*1101 (human) [6], 0.0002.

With “[…] (P. falciparum LSA, position 1609, 9 amino acids) (peptide; other documents disagree on this pair)”, the results for the binding affinity ratio (relative to standard peptide) in the assay with HLA-A*0301 (human) [2] and with HLA-A*1101 (human) [3] were 0.0001 and 0.0002, respectively.

Take “[…] (LSA position 1183, 10-mer) (peptide; other documents disagree on this pair)”: the binding affinity ratio (IC50 of standard peptide / IC50 of test peptide) with HLA-A*1101 (human) [4] is 0.0002.

Consider “[…] (Pf LSA 1825, 10-mer A03 supermotif peptide) (peptide; other documents disagree on this pair)”, for which the binding affinity ratio (IC50 of standard peptide / IC50 of test peptide) with HLA-A*1101 (human) [6] was determined as 0.0009.

With “[…] (Pf LSA 1854, 9-mer A03 supermotif peptide) (peptide; other documents disagree on this pair)”, the binding affinity ratio (IC50 of standard peptide / IC50 of test peptide) with HLA-A*1101 (human) [6] is 0.034.

As to “[…] (Pf LSA 1834, 10-mer A03 supermotif peptide) (peptide; other documents disagree on this pair)”, the binding affinity ratio (IC50 of standard peptide / IC50 of test peptide) in the assay with HLA-A*3101 (human) [7] amounted to 0.0042; with HLA-A*0301 (human) [5], 0.0081; with HLA-A*1101 (human) [6] it was 0.0007; with HLA-A*3301 (human) [8], 0.0009.

“[…] (EXP position 84, 10 amino acids) (peptide; other documents disagree on this pair)”: the binding affinity ratio (IC50 of standard peptide / IC50 of test peptide) with HLA-A*0201 (Human) amounted to 0.0059.

Regarding “[…] (LSA position 1703, 9-mer) (peptide; other documents disagree on this pair)”, the binding affinity ratio (IC50 of standard peptide / IC50 of test peptide) with HLA-A*1101 (human) [4] was 0.0027.

For the substance “[…] (EXP position 84, 9 amino acids) (peptide; other documents disagree on this pair)”, in the assay with HLA-A*0201 (Human), the binding affinity ratio (IC50 of standard peptide / IC50 of test peptide) was found to be 0.035.

In the case of “[…] (LSA position 49, 10-mer) (peptide; other documents disagree on this pair)”, in the assay with HLA-A*1101 (human) [4], the binding affinity ratio (IC50 of standard peptide / IC50 of test peptide) was found to be 0.0018.

Consider “[…] (LSA, position 1854, 9 amino acids) (peptide; other documents disagree on this pair)”, for which the binding affinity ratio (IC50 of standard peptide / IC50 of test peptide) with HLA-A*1101 (Human) [1] worked out at 0.034.

On to “[…] (Pf LSA position 1751, 9-mer) (peptide; other documents disagree on this pair)”, for which, in the assay with HLA-A*1101 (human) [4], the binding affinity ratio (IC50 of standard peptide / IC50 of test peptide) turned out to be 0.0018.

In the case of “[…] (Pf LSA 1631, 10-mer A03 supermotif peptide) (peptide; other documents disagree on this pair)”, the binding affinity ratio (IC50 of standard peptide / IC50 of test peptide) in the assay with HLA-A*3101 (human) [7] stood at 0.0086; in the assay with HLA-A*3301 (human) [8], 0.0011.

For the substance “[…] (LSA position 49, 9-mer) (peptide; other documents disagree on this pair)”, the binding affinity ratio (IC50 of standard peptide / IC50 of test peptide) with HLA-A*1101 (human) [4] worked out at 0.037.

Take “[…] (LSA position 41, 9-mer) (peptide; other documents disagree on this pair)”: the binding affinity ratio (IC50 of standard peptide / IC50 of test peptide) with HLA-A*1101 (human) [4] was 0.003.

For the substance “[…] (LSA position 520, 10-mer) (peptide; other documents disagree on this pair)”, in the assay with HLA-A*1101 (human) [4], the binding affinity ratio (IC50 of standard peptide / IC50 of test peptide) came out at 0.0002.

As for “[…] (P. falciparum EXP-1, position 79, 10 amino acids) (peptide; other documents disagree on this pair)”, the binding affinity ratio (IC50 of standard peptide / IC50 of test peptide) in the assay with HLA-A*0201 (Human) stood at 0.0022.

Consider “[…] (LSA position 1591, 10-mer) (peptide; other documents disagree on this pair)”, for which, in the assay with HLA-A*1101 (human) [4], the binding affinity ratio (IC50 of standard peptide / IC50 of test peptide) was 0.0002.

Turning to “[…] (P. falciparum EXP-1, position 80, 9 amino acids) (peptide; other documents disagree on this pair)”, the binding affinity ratio (IC50 of standard peptide / IC50 of test peptide) with HLA-A*0201 (Human) is 0.021.

For the substance “[…] (LSA position 40, 10-mer) (peptide; other documents disagree on this pair)”, the binding affinity ratio (IC50 of standard peptide / IC50 of test peptide) with HLA-A*1101 (human) [4] amounted to 0.0002.

Take “[…] (LSA position 1574, 10-mer) (peptide; other documents disagree on this pair)”: the binding affinity ratio (IC50 of standard peptide / IC50 of test peptide) with HLA-A*1101 (human) [4] is 0.0002.

In the case of “[…] (P. falciparum LSA, position 1660, 10 amino acids) (peptide; other documents disagree on this pair)”, the binding affinity ratio (relative to standard peptide) with HLA-A*6801 (human) was determined as 0.0029; with HLA-A*3101 (human) [9], 0.0009; with HLA-A*0301 (human) [2], 0.0001; with HLA-A*1101 (human) [3], 0.0002; in the assay with HLA-A*3301 (human) [10] it was 0.0008.

Consider “[…] (Pf LSA 61, 10-mer A03 supermotif peptide) (peptide; other documents disagree on this pair)”, for which, in the assay with HLA-A*0301 (human) [5], the binding affinity ratio (IC50 of standard peptide / IC50 of test peptide) worked out at 0.0004.

On to “[…] (LSA position 1855, 10-mer) (peptide; other documents disagree on this pair)”, for which, in the assay with HLA-A*1101 (human) [4], the binding affinity ratio (IC50 of standard peptide / IC50 of test peptide) stood at 0.0045.

With “[…] (EXP position 83, 10 amino acids) (peptide; other documents disagree on this pair)”, the binding affinity ratio (IC50 of standard peptide / IC50 of test peptide) with HLA-A*0201 (Human) is 0.038.

In the case of “[…] (P. falciparum LSA, position 1676, 9-mer) (peptide; other documents disagree on this pair)”, in the assay with HLA-A*1101 (human) [4], the binding affinity ratio (IC50 of standard peptide / IC50 of test peptide) worked out at 0.0013.

With “[…] (LSA position 1703, 10-mer) (peptide; other documents disagree on this pair)”, the binding affinity ratio (IC50 of standard peptide / IC50 of test peptide) in the assay with HLA-A*1101 (human) [4] came to 0.0002.

“[…] (LSA position 1750, 10-mer) (peptide; other documents disagree on this pair)”: the binding affinity ratio (IC50 of standard peptide / IC50 of test peptide) with HLA-A*1101 (human) [4] was 0.0002.

Regarding “[…] (P. falciparum LSA, position 1626, 10 amino acids) (peptide; other documents disagree on this pair)”, the binding affinity ratio (relative to standard peptide) with HLA-A*0301 (human) [2] worked out at 0.0001; with HLA-A*1101 (human) [3] it was 0.0002.

With “[…] (Pf LSA 16, 9-mer A03 supermotif peptide) (peptide; other documents disagree on this pair)”, the binding affinity ratio (IC50 of standard peptide / IC50 of test peptide) came out at 0.026 with HLA-A*0301 (human) [5] and 0.01 with HLA-A*1101 (human) [6].

“[…] (P. falciparum LSA, position 1713, 10 amino acids) (peptide; other documents disagree on this pair)”: the binding affinity ratio (relative to standard peptide) in the assay with HLA-A*6801 (human) turned out to be 0.0046; with HLA-A*3101 (human) [9], 0.0009; with HLA-A*1101 (human) [3], 0.0002; in the assay with HLA-A*3301 (human) [10], 0.0055.

With “[…] (LSA, position 1825, 10 amino acids) (peptide; other documents disagree on this pair)”, the binding affinity ratio (IC50 of standard peptide / IC50 of test peptide) with HLA-A*1101 (Human) [1] turned out to be 0.0009.

Consider “[…] (LSA position 1726, 10-mer) (peptide; other documents disagree on this pair)”, for which the binding affinity ratio (IC50 of standard peptide / IC50 of test peptide) in the assay with HLA-A*1101 (human) [4] came to 0.0002.

On to “[…] (LSA, position 1834, 10 amino acids) (peptide; other documents disagree on this pair)”, for which the binding affinity ratio (IC50 of standard peptide / IC50 of test peptide) with HLA-A*1101 (Human) [1] is 0.0007.
